# Laboratory results reported in patent US20180296707A1, “PHARMACEUTICAL FORMULATION AND METHOD OF PREPARING THE SAME” (SeeCure Taiwan Co., Ltd., priority 2017, published 2018).
# What was measured:
# [1] = PET/CT imaging, tumor/muscle count density in colorectal tumor models; type: in vivo, athymic nude mice; conditions: athymic nude, tumor/muscle, 500 uCi/mouse, total radioactivity, 500 μCi/mouse iv;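 further: human colorectal tumors grown on the hind legs of athymic nude mice, imaged by micro-PET/CT 21 to 28 days post inoculation, once tumors reached roughly 0.5 cm across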
# Description: (§1) Briefly, athymic nude mice (15±2 g) bearing human tumors (at hind legs) derived from the colorectal and pancreatic cell line were used for imaging studies. Studies were performed 21 to 28 days after inoculation when tumors were approximately 0.5 cm in diameter. Scintigraphic images were obtained either from a micro-PET (Inveon) embedded in the gantries coordinate PET/CT data acquisition. […] The static images were obtained at 0.5, 1 and 2 hrs.
# human colorectal tumor = assay: as above; type: in vivo, athymic nude mice; conditions: 500 μCi/mouse iv
# Description: as §1
# human pancreatic tumor = assay: PET/CT imaging, tumor/muscle count density in pancreatic tumor models; conditions: human pancreatic-tumor bearing mouse, FIG. 12
# Description: as §1
# SSTR2 = SSTR2 (Homo sapiens, UniProt P30874); conditions: background statement; cited from earlier work
# Sequence of SSTR2 (P30874 whole entry, species assumed): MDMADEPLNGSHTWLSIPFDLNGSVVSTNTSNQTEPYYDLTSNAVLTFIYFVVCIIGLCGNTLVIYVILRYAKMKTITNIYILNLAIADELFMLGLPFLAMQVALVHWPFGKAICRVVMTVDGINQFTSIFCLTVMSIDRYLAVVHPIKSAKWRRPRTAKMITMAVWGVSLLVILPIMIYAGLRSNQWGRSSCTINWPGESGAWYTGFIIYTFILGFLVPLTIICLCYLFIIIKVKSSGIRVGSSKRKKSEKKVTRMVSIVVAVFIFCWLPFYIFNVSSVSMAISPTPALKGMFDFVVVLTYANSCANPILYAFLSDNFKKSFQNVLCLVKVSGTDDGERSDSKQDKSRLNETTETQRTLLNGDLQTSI
# SSTR3 = SSTR3 (Homo sapiens, UniProt P32745); conditions: background statement; cited from earlier work
# Sequence of SSTR3 (P32745 whole entry, species assumed): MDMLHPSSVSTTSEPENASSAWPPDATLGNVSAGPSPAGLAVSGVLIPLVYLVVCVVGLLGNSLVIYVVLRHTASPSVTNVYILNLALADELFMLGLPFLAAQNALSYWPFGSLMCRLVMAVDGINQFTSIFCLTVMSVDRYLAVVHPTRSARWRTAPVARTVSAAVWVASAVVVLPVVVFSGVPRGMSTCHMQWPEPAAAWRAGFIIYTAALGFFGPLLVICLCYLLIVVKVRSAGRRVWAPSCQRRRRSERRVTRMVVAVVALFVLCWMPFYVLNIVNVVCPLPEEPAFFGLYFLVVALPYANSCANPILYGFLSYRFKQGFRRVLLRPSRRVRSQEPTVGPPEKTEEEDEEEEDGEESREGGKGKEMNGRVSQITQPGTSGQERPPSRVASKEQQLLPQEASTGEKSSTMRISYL
structure (smiles),measurement,setting,value
"C[C@@H](O)[C@H](NC(=O)[C@@H]1CSSC[C@H](NC(=O)[C@@H](Cc2ccccc2)NC(=O)CN2CCN(CC(=O)O)CCN(CC(=O)O)CCN(CC(=O)O)CC2)C(=O)N[C@@H](Cc2ccc(O)cc2)C(=O)N[C@H](Cc2c[nH]c3ccccc23)C(=O)N[C@@H](CCCCN)C(=O)N[C@@H]([C@@H](C)O)C(=O)N1)C(=O)O [^68Ga-DOTATATE, metal not drawn]",tissue to tissue ratio,"[1]; colorectal tumor-bearing mice, dynamic images 0 to 30 minutes, read-out: average tumor/muscle (T/M) count density ratios, approximate range",1.2
same,tissue to tissue ratio at 15 s,"[1]; frame 0, midpoint 15 sec",1.2
same,tissue to tissue ratio at 0.5 min,"[1]; frame 1, midpoint 30 sec",1.05
same,tissue to tissue ratio at 45 s,"[1]; frame 2, midpoint 45 sec",1.26
same,tissue to tissue ratio at 1 min,"[1]; frame 3, midpoint 60 sec",1.27
same,tissue to tissue ratio at 0.025 h,"[1]; frame 4, midpoint 90 sec",1.24
same,tissue to tissue ratio at 2 min,"[1]; frame 5, midpoint 120 sec",1.3
same,tissue to tissue ratio at 0.05 h,"[1]; frame 6, midpoint 180 sec",1.21
same,tissue to tissue ratio at 4 min,"[1]; frame 7, midpoint 240 sec",1.3
same,tissue to tissue ratio at 5 min,"[1]; frame 8, midpoint 300 sec",1.3
same,tissue to tissue ratio at 0.1 h,"[1]; frame 9, midpoint 360 sec",1.23
same,tissue to tissue ratio at 0.15 h,"[1]; frame 10, midpoint 540 sec",1.25
same,tissue to tissue ratio at 0.2 h,"[1]; frame 11, midpoint 720 sec",1.3
same,tissue to tissue ratio at 0.25 h,"[1]; frame 12, midpoint 900 sec",1.29
same,tissue to tissue ratio at 20 min,"[1]; frame 13, midpoint 1200 sec",1.42
same,tissue to tissue ratio at 25 min,"[1]; frame 14, midpoint 1500 sec",1.44
same,tissue to tissue ratio at 0.5 h,"[1]; frame 15, midpoint 1800 sec",1.55
same,Muscle count density,"human colorectal tumor; frame 0, midpoint 15 sec",0.242
same,Tumor count density,"human colorectal tumor; frame 0, midpoint 15 sec",0.290
same,Muscle count density,"human colorectal tumor; frame 1, midpoint 30 sec",0.273
same,Tumor count density,"human colorectal tumor; frame 1, midpoint 30 sec",0.286
same,Muscle count density,"human colorectal tumor; frame 2, midpoint 45 sec",0.237
same,Tumor count density,"human colorectal tumor; frame 2, midpoint 45 sec",0.298
same,Muscle count density,"human colorectal tumor; frame 3, midpoint 60 sec",0.255
same,Tumor count density,"human colorectal tumor; frame 3, midpoint 60 sec",0.324
same,Muscle count density,"human colorectal tumor; frame 4, midpoint 90 sec",0.238
same,Tumor count density,"human colorectal tumor; frame 4, midpoint 90 sec",0.296
same,Muscle count density,"human colorectal tumor; frame 5, midpoint 120 sec",0.227
same,Tumor count density,"human colorectal tumor; frame 5, midpoint 120 sec",0.296
same,Muscle count density,"human colorectal tumor; frame 6, midpoint 180 sec",0.235
same,Tumor count density,"human colorectal tumor; frame 6, midpoint 180 sec",0.284
same,Muscle count density,"human colorectal tumor; frame 7, midpoint 240 sec",0.233
same,Tumor count density,"human colorectal tumor; frame 7, midpoint 240 sec",0.303
same,Muscle count density,"human colorectal tumor; frame 8, midpoint 300 sec",0.231
same,Tumor count density,"human colorectal tumor; frame 8, midpoint 300 sec",0.300
same,Muscle count density,"human colorectal tumor; frame 9, midpoint 360 sec",0.232
same,Tumor count density,"human colorectal tumor; frame 9, midpoint 360 sec",0.286
same,Muscle count density,"human colorectal tumor; frame 10, midpoint 540 sec",0.230
same,Tumor count density,"human colorectal tumor; frame 10, midpoint 540 sec",0.287
same,Muscle count density,"human colorectal tumor; frame 11, midpoint 720 sec",0.231
same,Tumor count density,"human colorectal tumor; frame 11, midpoint 720 sec",0.300
same,Muscle count density,"human colorectal tumor; frame 12, midpoint 900 sec",0.227
same,Tumor count density,"human colorectal tumor; frame 12, midpoint 900 sec",0.294
same,Muscle count density,"human colorectal tumor; frame 13, midpoint 1200 sec",0.206
same,Tumor count density,"human colorectal tumor; frame 13, midpoint 1200 sec",0.292
same,Muscle count density,"human colorectal tumor; frame 14, midpoint 1500 sec",0.200
same,Tumor count density,"human colorectal tumor; frame 14, midpoint 1500 sec",0.288
same,Muscle count density,"human colorectal tumor; frame 15, midpoint 1800 sec",0.180
same,Tumor count density,"human colorectal tumor; frame 15, midpoint 1800 sec",0.279
O=C([O-])CN1CCN(CC(=O)[O-])CCN(CC(=O)O)CCN(CC(=O)[O-])CC1.[68Ga+3] [^68Ga-DOTA],bladder uptake (PET/CT),human pancreatic tumor,high bladder uptake
same,clearance (PET/CT),human pancreatic tumor,fast clearance
same,visualization of neuroendocrine tumors by PET/CT,human pancreatic tumor,could not be used to visualize neuroendocrine tumors
C[C@@H](O)[C@@H]1NC(=O)[C@H](CCCCN)NC(=O)[C@@H](Cc2c[nH]c3ccccc23)NC(=O)[C@H](Cc2ccccc2)NC(=O)[C@@H](NC(=O)[C@H](N)Cc2ccccc2)CSSC[C@@H](C(=O)N[C@H](CO)[C@@H](C)O)NC1=O [octreotide],affinity to SSTR2 subtype,SSTR2,high affinity
same,affinity to SSTR3 subtype,SSTR3,low affinity
